Patent US20020012942A1, “POLYPEPTIDES WITH A4 INTEGRIN SUBUNIT RELATED ACTIVITY” (Regents of the University of Minnesota, priority 1998, published 2002)
Like-named read-outs stand apart in the source and are kept apart here. Where no end group is shown, it is not given here.

Legend:
[1] = system: A375SM human melanoma cells; test: Trypan blue exclusion assay; assay type: cell-based
[2] = biological target: MPG/NG2 chondroitin sulfate proteoglycan (human) (UniProt Q6UVK1); test: SG1 peptide affinity column with purified MPG/NG2, linear NaCl gradient 15 mM to 1 M
MPG/NG2 chondroitin sulfate proteoglycan (human), sequence (Q6UVK1 30-2322): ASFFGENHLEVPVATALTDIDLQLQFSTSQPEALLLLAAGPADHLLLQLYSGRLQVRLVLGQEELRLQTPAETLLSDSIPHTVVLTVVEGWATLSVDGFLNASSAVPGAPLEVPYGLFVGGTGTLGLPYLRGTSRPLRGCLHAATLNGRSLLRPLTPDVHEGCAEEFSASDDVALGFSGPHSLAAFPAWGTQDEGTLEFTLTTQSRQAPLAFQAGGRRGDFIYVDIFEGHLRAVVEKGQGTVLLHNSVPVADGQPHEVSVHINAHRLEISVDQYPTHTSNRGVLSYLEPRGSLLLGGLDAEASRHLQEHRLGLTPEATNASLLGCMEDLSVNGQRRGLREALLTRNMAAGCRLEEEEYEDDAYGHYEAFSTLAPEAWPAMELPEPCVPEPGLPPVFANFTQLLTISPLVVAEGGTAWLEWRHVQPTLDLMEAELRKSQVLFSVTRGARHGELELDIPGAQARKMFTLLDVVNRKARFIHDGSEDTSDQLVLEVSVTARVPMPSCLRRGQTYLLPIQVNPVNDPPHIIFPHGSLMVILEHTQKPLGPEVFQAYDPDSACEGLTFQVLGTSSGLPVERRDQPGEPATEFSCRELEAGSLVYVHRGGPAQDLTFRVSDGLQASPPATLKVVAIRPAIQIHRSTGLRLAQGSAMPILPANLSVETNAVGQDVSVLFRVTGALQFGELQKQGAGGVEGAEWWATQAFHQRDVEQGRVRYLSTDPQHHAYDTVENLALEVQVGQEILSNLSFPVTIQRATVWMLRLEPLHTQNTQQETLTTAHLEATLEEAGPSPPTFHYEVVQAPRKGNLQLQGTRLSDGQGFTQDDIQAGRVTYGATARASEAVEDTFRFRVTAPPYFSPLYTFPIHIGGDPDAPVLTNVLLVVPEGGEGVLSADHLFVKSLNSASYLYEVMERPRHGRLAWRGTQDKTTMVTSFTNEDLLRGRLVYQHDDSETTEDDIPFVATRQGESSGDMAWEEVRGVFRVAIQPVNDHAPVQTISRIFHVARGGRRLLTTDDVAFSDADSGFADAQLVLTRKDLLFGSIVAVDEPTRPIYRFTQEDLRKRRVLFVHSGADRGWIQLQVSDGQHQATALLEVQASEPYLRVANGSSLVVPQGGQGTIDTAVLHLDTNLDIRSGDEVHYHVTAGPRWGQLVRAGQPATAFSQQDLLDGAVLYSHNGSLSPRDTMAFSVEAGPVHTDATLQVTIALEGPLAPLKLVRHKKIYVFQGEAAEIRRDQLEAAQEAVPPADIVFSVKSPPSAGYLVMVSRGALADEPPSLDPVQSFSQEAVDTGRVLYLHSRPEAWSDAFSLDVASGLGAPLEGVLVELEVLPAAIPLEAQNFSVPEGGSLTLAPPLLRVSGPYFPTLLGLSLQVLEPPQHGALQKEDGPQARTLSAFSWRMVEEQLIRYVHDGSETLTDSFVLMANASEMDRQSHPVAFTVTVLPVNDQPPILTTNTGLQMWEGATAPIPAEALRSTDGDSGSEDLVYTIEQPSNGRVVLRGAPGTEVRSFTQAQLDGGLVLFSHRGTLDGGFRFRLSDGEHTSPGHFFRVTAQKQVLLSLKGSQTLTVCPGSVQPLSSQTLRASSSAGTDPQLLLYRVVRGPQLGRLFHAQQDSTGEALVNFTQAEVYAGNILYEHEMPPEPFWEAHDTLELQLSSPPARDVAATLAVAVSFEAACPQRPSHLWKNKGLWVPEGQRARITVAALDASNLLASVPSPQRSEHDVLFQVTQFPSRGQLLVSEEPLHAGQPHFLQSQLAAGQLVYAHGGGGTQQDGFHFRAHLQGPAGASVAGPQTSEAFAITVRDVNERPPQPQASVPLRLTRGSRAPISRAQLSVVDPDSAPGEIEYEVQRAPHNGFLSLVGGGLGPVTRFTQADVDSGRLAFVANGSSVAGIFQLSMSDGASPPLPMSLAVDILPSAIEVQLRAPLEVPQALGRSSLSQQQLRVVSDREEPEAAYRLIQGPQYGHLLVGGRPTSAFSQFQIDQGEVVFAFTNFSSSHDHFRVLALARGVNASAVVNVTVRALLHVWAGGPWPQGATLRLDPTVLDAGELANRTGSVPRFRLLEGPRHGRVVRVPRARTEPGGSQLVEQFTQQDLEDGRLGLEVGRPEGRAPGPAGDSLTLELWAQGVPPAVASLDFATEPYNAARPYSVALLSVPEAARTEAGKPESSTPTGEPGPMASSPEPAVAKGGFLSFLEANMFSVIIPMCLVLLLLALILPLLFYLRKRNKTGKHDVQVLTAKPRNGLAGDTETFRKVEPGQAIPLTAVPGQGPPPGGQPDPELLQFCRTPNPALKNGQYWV

CD44 proteoglycan = CD44 proteoglycan (human, UniProt P16070-12 21-361, limits assumed); test: SG1 peptide affinity column with 125I-labeled melanoma cell lysate; pooled eluate immunoprecipitated with anti-CD44
CD44 proteoglycan, sequence (P16070 other isoform, or with tags, fused parts or gaps limits assumed): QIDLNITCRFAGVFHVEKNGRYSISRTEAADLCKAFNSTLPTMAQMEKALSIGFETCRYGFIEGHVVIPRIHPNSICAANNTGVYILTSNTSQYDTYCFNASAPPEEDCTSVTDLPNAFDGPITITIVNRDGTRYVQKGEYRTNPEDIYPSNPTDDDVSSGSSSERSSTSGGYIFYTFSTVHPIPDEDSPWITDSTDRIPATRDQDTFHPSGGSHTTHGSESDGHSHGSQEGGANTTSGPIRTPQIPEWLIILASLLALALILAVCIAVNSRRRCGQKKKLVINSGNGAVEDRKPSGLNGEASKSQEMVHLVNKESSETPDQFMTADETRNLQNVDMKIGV
Description: Peptide-affinity chromatography was performed according to the methods described in Iida et al., J. Cell Biol., 118, 431-444 (1992). SG1 was immobilized on CH-Spharose and blocked using standard methods as described in the manufacturer's instruction. (available from Pharmacia). Human melanoma cells were surface radiolabeled with ¹²⁵I using lactoperoxidase and extracted as described in Iida et al., Cancer Res., 55, 2177-2185 (1995). Cells were extracted with 50 mM Tris-HCl (pH 7.3) containing 50 mM β-octylglucoside, 15 mM NaCl, 1 mM Ca²+, 1 mM Mg²+, 1 mM Mn²+, 1 mM PMSF, and 1 mM NEM (extraction buffer) and then centrifuged at 36500 rpm for 1 h at 4° C. The cell lysates were first precleared by incubating with a mock-column, where no peptide was immobilized, and then applied on the SG1 column. The column was extensively washed with the extraction buffer and then bound proteins were subsequently eluted by a linear gradient of sodium chloride (15 mM to 1 M). Each fraction was counted by r-counter and positive fractions were pooled and immunoprecipitated as described below.
In order to study the function of SG1 site in α4β1 integrin, affinity chromatography was performed using immobilized SG1 polypeptide. […] Open circles represent the radioactivity in each fraction and the solid line represents the concentration of NaCl in each fraction. […]

[3] = system: A375SM human melanoma cells; test: Cell adhesion assay: A375SM melanoma cell adhesion to substrata coated with CS1/OVA; assay type: cell-based; conditions: A375SM cells on coated substrata
Description: Cell adhesion assays were performed as previously described in Iida et al., J. Cell Biol., 118, 431-444 (1992) with minor modifications. Ligands were diluted in PBS, and 50 μl aliquots were dispersed in triplicate into Immulon-1 polystyrene microtiter wells. The wells were incubated at 37° C. overnight, and nonspecific binding sites on plastic were then blocked by treating the wells with 200 ul of PBS/BSA.
Subconfluent A375SM human melanoma cells which had been radiolabeled overnight with ^3H-thymidine (3HTdR, specific activity 6.7 Ci/mmol; NEN Research Products, Boston, Mass.), were harvested by rinsing with 1 mM EDTA, washed two times with EMEM/BSA (EMEM containing 2 mg/ml BSA and 0.15 mM Hepes, pH 7.2) and adjusted to a concentration of […] in the same medium. Aliquots of 100 ul of the cell suspension were dispensed into the wells and the cells were incubated at 37° C. for 30 min. The assays were terminated by aspirating loosely bound and unbound cells from the wells, washing the wells three times, and solubilizing the bound cells in 0.5 N NaOH containing 1% SDS. Bound radioactivity, determined in a Beckman Model 3801 Liquid Scintillation Counter, was used to calculate the percentage of cells which remained adherent to each substratum. Unless otherwise indicated, the data represent the mean of triplicate determinations. […]

Molecule: DELPQLVTLPHPNLHGPEILDVPST [CS1, reference compound]
- Toxic activity on the cells (trypan blue exclusion) ([1]; not shown): not be due to their toxic activity

Molecule: LQQKKEKDIMKKTI [SG1, LQQKKEKDIMKKTI]
- Toxic activity on the cells (trypan blue exclusion) [1]: not be due to their toxic activity

B1: SG1 polypeptide (peptide)
peptide: LQQKKEKDIMKKTI
modifications: Immobilized on CH-Sepharose (CH-affinity beads) in the affinity chromatography; the coupling to the support is not carried by the letters.
notes: Synthetic peptide; used as soluble peptide in the adhesion assays; also called L-SG1; polypeptide SG1
- NaCl concentration at elution [2]: 0.13 to 0.15 M
- binding result (CD44 proteoglycan): no binding

B2: CS1/OVA: CS1 polypeptide chemically conjugated to ovalbumin using EDC (conjugate)
peptide: DELPQLVTLPHPNLHGPEILDVPST
chain: GSIGAASMEFCFDVFKELKVHHANENIFYCPIAIMSALAMVYLGAKDSTRTQINKVVRFDKLPGFGDSIEAQCGTSVNVHSSLRDILNQITKPNDVYSFSLASRLYAEERYPILPEYLQCVKELYRGGLEPINFQTAADQARELINSWVESQTNGIIRNVLQPSSVDSQTAMVLVNAIVFKGLWEKAFKDEDTQAMPFRVTEQESKPVQMMYQIGLFRVASMASEKMKILELPFASGTMSMLVLLPDEVSGLEQLESIINFEKLTEWTSSNVMEERKIKVYLPRMKMEEKYNLTSVLMAMGITDVFSSSANLSGISSAESLKISQAVHAAHAEINEAGREVVGSAEAGVDAASVSEEFRADHPFLFCIKHIATNAVLFFGRCVSP
- Coating concentration that promoted half maximal cell adhesion [3]: 5 µg/mL
